Positions count from the first letter of the chain named.

As usually defined, the EC50 (read off the curve) is the midpoint of the concentration-response curve.

The target in experiment [1] is T1, cynomolgus IL-17RA on the cell surface (cynomolgus).
T1 construct: whole, on cells; also called CHO-cynoIL-17RA; cyno IL-17RA+ CHO cells
In words: FACS competition, non-clonal hybridoma supernatant vs biotin-huIL-17A (500 ng/ml) on cyno IL-17RA+ cells; lower = more inhibition.

The target of experiment [2] is T1, cynomolgus IL-17RA on the cell surface. The experiment can be described thus: FACS competition, non-clonal hybridoma supernatant vs biotin-huIL-17A (500 ng/ml) on cyno IL-17RA+ CHO cells; lower = more inhibition.
Experimental: The anti-IL-17RA antibodies were characterized. Non-clonal hybridoma supernatants were prepared in volumes of 1-2 mls (the Ig concentrations were not determined for these supernatants).
The target is the same in experiment [3]. The experiment can be described thus: FACS competition, non-clonal hybridoma supernatant vs biotin-huIL-17A (500 ng/ml) on cynomolgus IL-17RA+ CHO cells; lower = more inhibition.
Experimental: Non-clonal hybridoma supernatants were prepared in volumes of 1-2 mls (the Ig concentrations were not determined for these supernatants). […] Anti-IL-17RA non-clonal hybridomas were selected for sub-cloning based on their performance in the CHO-IL-17RA FACS assay and HFF bioassay.
Experiment [4] has the same target. The experiment can be described thus: cell-based or functional assay.
For experiment [5], the target named is T2, D152R IL-17RA mutant (human, UniProt Q96F46 33-320).
T2 construct: Arginine scan mutant of huIL-17RA-FLAG-polyHis; also called huIL-17RA-FLAG-polyHis D152R
T2 sequence (Q96F46 other isoform, or with tags, fused parts or gaps D152R D152R limits assumed): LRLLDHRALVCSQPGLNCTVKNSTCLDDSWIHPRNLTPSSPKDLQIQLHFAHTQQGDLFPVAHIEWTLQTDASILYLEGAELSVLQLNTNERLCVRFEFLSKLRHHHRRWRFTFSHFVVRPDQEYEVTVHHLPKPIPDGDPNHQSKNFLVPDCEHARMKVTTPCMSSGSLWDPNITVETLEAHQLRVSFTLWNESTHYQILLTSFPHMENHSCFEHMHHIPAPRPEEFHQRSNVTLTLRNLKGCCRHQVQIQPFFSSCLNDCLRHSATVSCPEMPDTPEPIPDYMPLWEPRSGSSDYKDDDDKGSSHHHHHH
The experiment can be described thus: Bio-Plex titration on His-captured D152R IL-17RA mutant; signal as percent of maximum wild-type MFI.
Experimental: Twelve bead codes of pentaHis-coated beads (Qiagen, Valencia, Calif.; see www1.qiagen.com) were used to capture histidine-tagged protein.
To prepare the beads, 100 ul of wild-type IL-17RA and IL-17RA arginine mutant supernatants from transient expression culture were bound to penta-His-coated beads overnight at 4° C. or 2 hours at room temperature with vigorous shaking. The beads were washed as per the manufacturer's protocol and the 12 bead set was pooled and aliquoted into 2 or 3 columns of a 96-well filter plate (Millipore, Bellerica, Mass., product #MSBVN1250) for duplicate or triplicate assay points, respectively. 100 ul anti-IL-17RA antibodies in 4-fold dilutions were added to the wells, incubated for 1 hour at room temperature, and washed. […] Beads were resuspended in 1% BSA, shaken for 3 minutes, and read on the Bio-Plex workstation. Antibody binding to IL-17RA arginine mutant protein was compared to antibody binding to the human IL-17RA wild-type from the same pool. A titration of antibody over approximately a 5 log scale was performed. Median Fluorescence Intensity (MFI) of IL-17RA arginine mutant proteins was graphed as a percent of maximum wild-type human IL-17RA signal.

B1: AMH22/AML22 (antibody, IgG2, V domains shown)
VH: QVQLVQSGAEVKKPGASVKVSCKASGYTFTRYGISWVRQAPGQGLEWMGWISAYSGNTNYAQKLQGRVTMTTDTSTSTAYMELRSLRSDDTAVYYCARRQLYFDYWGQGTLVTVSS
VL: EIVMTQSPATLSVSPGERVTLSCRASQSVSSNLAWFQQKPGQAPRPLIYDASTRAAGIPARFSGSGSGTDFTLTISSLQSEDFAVYYCQQYDNWPLTFGGGTKVEIK
notes: also called AM-22
The molecule B1 showed an MFI in experiment [1] of 18.

B2: AMH15/AML15 (antibody, IgG2, V domains shown)
VH: QVQLVESGGGVVQPGRSLRLSCAASGFTFSSYGMQWVRQAPGKGLEWVAVIWYDGNKKYYADSVKGRFTISRDNSKNTLYLQMNSLRAEDTAVYYCARGRVRDYYYGMDVWGQGTTVTVSS
VL: B1 VL
notes: IgG2 XenoMouse; also called AM-15
B2 displayed an MFI in experiment [2] of 6.

B3: AMH17/AML17 (antibody, V domains shown)
VH: B1 VH with S17A, S25T, F29L, R31S, N59K, R99K, Y102V
VL: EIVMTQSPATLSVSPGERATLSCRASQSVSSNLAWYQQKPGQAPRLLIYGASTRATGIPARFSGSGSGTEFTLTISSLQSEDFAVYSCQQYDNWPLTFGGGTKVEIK
notes: also called AM-17
Turning to B3, in experiment [3], the MFI amounted to 8.

B4: AMH14/AML14 (antibody, IgG2, V domains shown)
VH: B1 VH with A53T
VL: B1 VL with V19A, A56T, I58V
notes: Fully human mAb from IgG2 XenoMouse mice; also called AM-14
In experiment [2], B4 yielded an MFI of 10. Also, the “IC50, cynomolgous IL-17A-induced IL-6 production from JTC-12 cells” value in experiment [4] was ~1.2 nM.

B5: AMH16/AML16 (antibody, IgG2, V domains shown)
VH: B1 VH with R31S, S55N, N59K, A79V, R99K, Y102V
VL: EIVMTQSPATLSVSPGERATLSCRASQSISTSLAWYQQKPGQAPRLLIYGTSTRATGIPARFSGSGSGTEFTLTISSLQSEDFAVYFCQQYDIWPLTFGGGTKVEIK
notes: also called AM-16
For the molecule B5, the MFI in experiment [3] is 6.

B6: AMH12/AML12 (antibody, IgG2, V domains shown)
VH: B1 VH with F29L, R31S, A53T, S55K, R99K, Y102V
VL: B5 VL with T31S, T51A, D82N, F87Y, I93N
notes: also called AM-12
As for B6, the MFI in experiment [3] was found to be 6.

B7: AMH21/AML21 (antibody, IgG2, V domains shown)
VH: EVQLVESGGGSVQPGGSLRLSCAASGFTFSSYSMNWVRQAPGKGLEWVSIISSRSSIIHYADSVKGRFTISRDNAKNSLYLQMNSLRDEDTAVYYCARPKVGGGMDVWGQGTTVTVSS
VL: DIQMTQSPSSLSASVGDRVTITCRASQGISNYLAWYQQKPGKFPELLIYAASTLQSGVPSRFSGSGSGTDFTLTISSLQPEDVATYYCQKYNRAPFTFGPGTKVDIK
notes: also called AM-21
As for B7, the MFI in experiment [2] amounted to 6.

B8: AMH5/AML5 (antibody, IgG2, V domains shown)
VH: QVQLQESGPGLVKPSETLPLTCTVSGGSIRSYYWSWIRQPAGKGLEWIGRIYRSGNTIYNPSLKSRVTMSIDTSKNQFSLTLSSVTAADTAVYYCARENYSESSGLYYYYGMDVWGQGTTVTVSS
VL: DIQMTQSPSSLSASVGDRVTITCRASQGIRNDLGWYQQKPGKAPKRLIYAASSFQSGVPSRFSGSGSGTGFTLTISSLQPEDFATYYCLQHNSYPPTFGQGTKVEIK
notes: IgG2 XenoMouse; also called AM-5
B8 displayed an MFI in experiment [1] of 9.

B9: AMH1/AML1 (antibody, V domains shown)
VH: QVQLQESGPGLVKPSETLSLTCTVSGGSISNYYWNWIRQSPGKGLEWIGDIYYSGSTNYNPSLKSRVTISVDTSKNQFSLKLSSVTTADTAVYYCARDGELANYYGSGSYQFYYYYGMDVWGQGTTVTVSS
VL: B8 VL with Q3L, F54L, G70E, Y94N, P96F, Q100P, E105D
notes: also called AM-1
In experiment [1], B9 displayed an MFI of 11.

B10: AMH13/AML13 (antibody, IgG2, V domains shown)
VH: B2 VH
VL: DIVMTQTPLSLSVTPGQPASIACKSSQSLLHSDGKTYLYWYLQKPGQPPQLLIYEVSTRFSGVPDRFSGSGSGTDFTLKISRVEAEDVGVFYCMQSIQLPLTFGGGTKVEIK
notes: also called AM-13
As to B10, in experiment [3], the MFI came to 6.

B11: AMH11/AML11 (antibody, IgG2, V domains shown)
VH: QVQLVESGGGVVQPGRSLRLSCATSGITFSSYGMHWVRQAPGKGLEWVAVIWYDGSNKYYADSVKGRFTISRDNSKNTLYLQMNSLRAEDTAVYYCARDTKDYWGQGTLVTVSS
VL: EIVMTQSPATLSVSPGERATLSCRASQSVSSNLAWYQQKPGQAPRLLIYGASTRAAGIPARFSGGGSGTAFTLTISNLQSEDFAVYYCQHYINWPKWTFGQGTKVDIK
notes: also called AM-11
B11: the MFI in experiment [1] came out at 9.

B12: AMH18/AML18 (antibody, IgG2, V domains shown)
VH: QVQLVQSGAEVKKPGASVKVSCKASGYSFTDYYMHWVRQAPGQGLEWMGWMHPNSGGTDLAQRFQGRVTMTRDTSISTAYMELSRLRSDDTAVYYCARGGYCSTLSCSFYWYFDLWGRGTLVTVSS
VL: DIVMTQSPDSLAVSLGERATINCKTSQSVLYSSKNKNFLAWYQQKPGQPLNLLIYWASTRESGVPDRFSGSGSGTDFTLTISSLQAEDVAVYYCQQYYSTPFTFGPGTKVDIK
notes: also called AM-18
Turning to B12, in experiment [5], the concentration for a half-maximal effect (EC50 (read off the curve)) is ~0.08 nM.

These data come from patent US20110166331A1 (Amgen, published 2011).
